Our source for the Kd and binding signal (counts/DNA values is publication PMC9561264.

The target in data set [1] is hOGG1 (human oxoguanine glycosylase 1), wildtype (human) (UniProt O15527). Kind of data set: FP; reducing. Particulars: domain or fragment.
The target is the same in data set [2]. Kind of data set: FP; oxidising. Particulars: domain or fragment.
For data set [3] the target is unchanged. Briefly: fluorescence polarisation; reducing conditions (5 mM DTT); 5 nM Ni-NTA AF488 labelled his6-hOGG1, unlabelled protein titrated (Myc 1.22 nM-2 uM, LSD1 1.38 nM-60 uM, hOGG1 0.24 nM-8 uM); 20 mM Tris-HCl pH 7.6, 200 mM NaCl; 25 C; single Hill fit.
Data set [4] has the same target. Kind of data set: fluorescence polarisation; oxidising conditions (5 uM H2O2); 5 nM Ni-NTA AF488 labelled his6-hOGG1, unlabelled protein titrated (Myc 1.22 nM-2 uM, LSD1 1.38 nM-60 uM, hOGG1 0.24 nM-8 uM); 20 mM Tris-HCl pH 7.6, 200 mM NaCl; 25 C; single Hill fit. (Polarisation of emitted light reports the rotation of a fluorescent probe.)
A further data set deals with hOGG1 wild type (human) (UniProt O15527). Kind of data set: AFM. Particulars: 150 nM hOGG1, 8-oxoguanine at ~50% (49.8%) of length, FP at 25°C with 5 nM labelled DNA, EMSA room temp 30 min, 15% native PAGE 0.5x TBE 4°C, interaction buffer 20 mM Tris-HCl pH 7.6, 200 mM NaCl (Fig. S12) …. (In general: In EMSA bound probe runs differently from free probe, usually more slowly.)
hOGG1 wild type (human), sequence (O15527 whole entry): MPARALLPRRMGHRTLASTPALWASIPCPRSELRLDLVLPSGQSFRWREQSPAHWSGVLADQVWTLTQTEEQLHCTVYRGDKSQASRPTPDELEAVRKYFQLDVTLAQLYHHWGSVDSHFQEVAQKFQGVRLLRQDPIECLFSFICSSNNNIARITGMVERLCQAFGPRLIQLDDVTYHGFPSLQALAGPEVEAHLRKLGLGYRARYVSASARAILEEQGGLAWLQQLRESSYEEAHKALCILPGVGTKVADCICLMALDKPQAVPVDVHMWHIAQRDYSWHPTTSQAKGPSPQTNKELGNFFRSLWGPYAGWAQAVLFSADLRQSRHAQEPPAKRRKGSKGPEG

hOGG1 (human oxoguanine glycosylase 1), wildtype (human), sequence (O15527 whole entry, the tested form may be a part): as the sequence (O15527 whole entry) above
isolated N-terminal domain of Myc, sequence (P01106 16-158): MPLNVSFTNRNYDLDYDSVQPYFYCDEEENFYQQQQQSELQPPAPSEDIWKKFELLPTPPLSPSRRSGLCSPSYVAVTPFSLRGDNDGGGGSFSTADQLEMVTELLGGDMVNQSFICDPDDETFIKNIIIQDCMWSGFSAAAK
GST tagged full length c-Myc, sequence (P01106 whole entry): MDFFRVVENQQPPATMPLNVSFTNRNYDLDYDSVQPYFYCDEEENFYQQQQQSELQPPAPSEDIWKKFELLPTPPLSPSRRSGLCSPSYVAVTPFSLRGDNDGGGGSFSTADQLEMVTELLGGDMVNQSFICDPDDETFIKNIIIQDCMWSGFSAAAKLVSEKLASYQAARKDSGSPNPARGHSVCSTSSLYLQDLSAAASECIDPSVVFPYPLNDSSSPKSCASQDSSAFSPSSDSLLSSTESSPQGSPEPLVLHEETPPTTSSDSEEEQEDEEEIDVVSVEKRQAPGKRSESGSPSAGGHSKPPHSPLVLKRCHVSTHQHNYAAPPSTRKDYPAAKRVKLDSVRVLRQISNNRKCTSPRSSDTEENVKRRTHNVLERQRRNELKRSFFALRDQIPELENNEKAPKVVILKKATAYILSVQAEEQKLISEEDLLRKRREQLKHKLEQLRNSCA

Broadly, the Kd is the constant that tells how readily two partners part at equilibrium. Low values mean tighter binding, high ones weaker binding. As to isolated N-terminal domain of Myc, the dissociation constant (Kd) in data set [1] is 1070 nM; in data set [2], 705 nM.
In the case of “GST tagged full length c-Myc (from UniProt P01106 1-454) (natural protein; Ni-NTA AlexaFluor 488 dye on the his6 tag (labelled copy in fluorescence polarisation); other documents disagree on this pair)”, the Kd amounted to 1060 nM in data set [3] and 662 nM in data set [4].
Consider oxoG 505 bp AFM substrate, for which the binding signal (counts/DNA at oxoG) in the data set with hOGG1 wild type (human) (oxidising, specificity 368 ± 74) amounted to 0.1; in the data set with hOGG1 wild type (human) (reducing, specificity 543 ± 37), 0.18.
